{
  "source": "the DeepSol protein solubility set",
  "data": [
    {"test": "soluble on expression in E. coli; label from the status in PepcDB or PDB records", "values": [
      {"sequence": "MAAKRPPASTLKWCQQEMGPICEGIGMVVRSQIGYDGRRIEKQIRRKALQTVVMGGQDVDPLKEPNKTNAPLLSPTLPSTNEALQRARVVAAGIETFAKLMSQGTYPGSAGFTVSETGERKYMKQTSPVQSNIVANLMATADKLSKGVISLAPFPLPTITKLGTWVIANPTAQLPIPPQLKSAIPAIGQIETLIQSILGVQGPVSSVSRAPRKLKLEGVTDQVVLEPETIHATVDVEPIDKTLTKEEAEFLIKAARSVDDDNAETAIFGTQKAKPKVYRPELPKNFEVNLEMGNVHTLTRSNESSVPATRIGRLATFGQLAFGLLGGATAEVTRRTFGIGKRLQEEGIPKNPFLSEANADRIVATLCRVRGAALKLGQMLSIQDSSTVPPALLQIFERVRQSADFMPIKQVHRQMKDAFGDDWREKFEHFDDKPFACASIGQVHKAVLKDGRNVAVKVQYPGVAEGIDSDIDNLVSVLSVGGIFPKGMFLDAFVGVARRELKQECDYEREARAMKKFRELIADWQDVYVPEVIDELSSSRVLTTELVYGKPVDACVEEPQVVRDYIAGKFIELCLKEIFLWRFMQTDPNWSNFFLGKHPKTGEPRLVLLDFGASRAYGKKFVDIYMNIIKSAYDGDKKKIIEYSREIGFLTGYETSVMEDAHVESVMIMGETLASNHPYNFANQDVTMRIQKLIPVMLEHRLTSPPEEIYSLHRKLSGCYLLAAKLKATVSCGGLFHEIHENYVFGEDGIDINID", "soluble on expression in E. coli": "not soluble"},
      {"sequence": "GPLGSMSAAIAKPSAKPSAHVDPKSAPLKEIPDVLVDPRTMKRYMRGRFLGKGGFAKCYEITDMDTKEVFAGKVVPKSMLLKPHQKEKMSTEIAIHKSLDNPHVVGFHGFFEDDDFVYVVLEICRRRSLLELHKRRKAVTEPEARYFMRQTIQGVQYLHNNRVIHRDLKLGNLFLNDDMDVKIGDFGLATKIEFDGERKKTLCGTPNYIAPEVLCKKGHSFEVDIWSLGCILYTLLVGKPPFETSCLKETYIRIKKNEYSVPRHINPVASALIRRMLHADPTLRPSVAELLTDEFFTSGYAPMRLPTSCLTVPPRFS", "soluble on expression in E. coli": "soluble"},
      {"sequence": "MSLELLSNRLEFLREAERLKDVLRSAHTSSGRPESTAEHSWRLCLMALAFEDQLAGLDLGKVLRMCVVHDLGEAIHGDIPAVEQAAHPDKGEQERADLLQLTRHLDAPLRDRLLALWDEYERGESAEALAVKALDKLETLLQHTQGDNPADFDYAFNLDYGRRYTDRAPLFKTLRELLDARTRQRLAVRRDA", "soluble on expression in E. coli": "not soluble"},
      {"sequence": "SSGLVPRGSHMSEMIYGIHAVQALLERAPERFQEVFILKGREDKRLLPLIHALESQGVVIQLANRQYLDEKSDGAVHQGIIARVKPGRQYQENDLPDLIASLDQPFLLILDGVTDPHNLGACLRSADAAGVHAVIVPKDRSAQLNATAKKVACGAAESVPLIRVTNLARTMRMLQEENIWIVGTAGEADHTLYQSKMTGRLALVMGAEGEGMRRLTREHCDELISIPMAGSVSSLNVSVATGICLFEAVRQRS", "soluble on expression in E. coli": "soluble"},
      {"sequence": "MAHHHHHHMTNFETFQQFYVRDWTPKARPVDAAASVVAPCDGQVLAVNANVESTSLVQVKGLTYGMRSLLQDTPPPLNTDTHRRVAVVLHMRNKDFHHVIAPLSFACEKSIYVPGSLLPTTSAGYHWIPAVLALNERLILQGRSSDKARLPVYMALVGSTLTGRITLYMDKRVRTNYLDPPAYAVHSPYASKPVVARGERLATFNWGSSVVLVMDVPKSCKPLKRPGDVVKAGEALFQF", "soluble on expression in E. coli": "not soluble"},
      {"sequence": "MAHHHHHHMQWKKDDLFEGLRKLPRTPGELFGHRNKLNFILQKRFFIAPDMVELALNRQNGEQFNRCYAKLVMQAVAKFNNTTRSQLKVRVDPRLPKGLQLIQPDDKDTGANLKSKKSEKAASGRLNAFSNTTSGQQRKPQQRQQSRYCSPQSGGVSPRVVMPIDPAERDCLYATYLRARTPQSGTPDYSDMMLQSPSCATDGKTTMFSEDGSSALRSATRRSAGDVHFATPPVFKGFERTLELTPADSPTESLPLHF", "soluble on expression in E. coli": "not soluble"},
      {"sequence": "MRSFIIFSTLLVILVQCGYPVAENSYPTTPSYPTPPPSYPTPKKYPVAPTYPSTPSYSAPPAQSAYSSSDNQEDTESESVTGAASTSEYRKRAKARTAHNRQFQRRALQPIKRFQQKKQ", "soluble on expression in E. coli": "not soluble"},
      {"sequence": "MNNHNCFLTPLQQKFMQILSDYERDPKSIQIHEESDQMDVVISYFKLLLAEKSRLLQYGQANFSVHLIDEEIGRLFMAPISMADIGILEECGREALRFTDLGAMFSDSDDSMHSDEDEVTLTESIRIPVETYPTYNFIGRIIGPRGTTAKQLEKDTGCRIMIRGNHSNKMYGNALHKTHGDGSQDAIDLPLRVIVETSGPRREATARITAALETVQVLLVPPPDGRDELKRRQLVELAIMNGTYRPSCSRIDHN", "soluble on expression in E. coli": "not soluble"},
      {"sequence": "DGTVLPGPVPVTVAVRAPGDENDEDASGEASTPNAVRPRTSCRRDRFVAGIVRGTFHPDLYMCSQDCITFKGKRIGRSKFEKLGNSSMAKWHRSIRVIREDGELEPLGEWLTRHGLPVLKGKQRISRKRTIRI", "soluble on expression in E. coli": "not soluble"},
      {"sequence": "KPAKPAAKSIVTLDVKPWDDETNLEEMVANVKAIEMEGLTWGAHQFIPIGFGIKKLQINCVVEDDKVSLDDLQQSIEEDEDHVQSTDIAAMQAL", "soluble on expression in E. coli": "soluble"},
      {"sequence": "MGSDKIHHHHHHMTDFSQLPNAAGVGYKPQHFQNIIDGSGAVDWLEIHAENYMGDGGRPLAQLRHLAERFPISVHGVGLSIGGEGPLDPEHLARLKHLVDWLKPASFSEHLAWSTHDTHFYNDLLPLPYTDATLARICDHIDMVQTLLGRRMLLENPSSYLAFAESTWEEPAFLHEIAKRTGCGLLLDVNNVFVSATNLGYRPQDYIDAYPLDLVGEIHLGGHDEDEDDHGRPLLIDSHGAEVVDPVWSLLSYTLTRSGPKPTLVEWDTDVPEWSVLEAEAARAANALRTAKVAA", "soluble on expression in E. coli": "not soluble"},
      {"sequence": "MGSDKIHHHHHHMDEQQQLANAYHSNKLSHAYLFEGDDAQTMKRVAIHFTKLILCNNSNQCELKVDTFNHPDFSYVSSDENTIKKEQIEQLVHHMNQLPIEGQYKVYIIEDFEKLTVQGENSILKFLEEPPDNTIAILLSTKPEQILDTIHSRCQHVYFKPIDKRQFIERLVEMSIARPVAEMLSTYTTQIEAASSLNEEFDLVTLRKSIIRWCQLILSNKAMALIGVIELLKQAKNRKLQLLTLSAVNGFFEDIMHAKIEMDNYYTFSDLTEEIENYANQLTFNQLILMYDQITEAHKKLNQNVNPTLVFEQIVIKGVI", "soluble on expression in E. coli": "not soluble"},
      {"sequence": "MNYTKFDVKNWVRREHFEFYRHRLPCGFSLTSKIDITTLKKSLDDSAYKFYPVMIYLIAQAVNQFDELRMAIKDDELIVWDSVDPCFTVFHQETETFSALSCPYSSDIDQFMVNYLSVMERYKSDTKLFPQGVTPENHLFISALPWVNFDSFNLNVANFTDFFAPVITMAKYQQEGDRLLLPLSVQVHHAVCDGFHVARFINRLQELCNSKLK", "soluble on expression in E. coli": "soluble"},
      {"sequence": "GMDKYLSANSLEGVIDNEFSMPAPRWLNTYPAGPYRFINREFFIIAYETDPDLLQAILPPDMELLEPVVKFEFIRMPDSTGFGDYTESGQVVPVRYKGEEGGFTISMFLDCHAPIAGGREIWGFPKKLAKPKLFVEEDTLIGILKYGSIDIAIATMGYKHRPLDAEKVLESVKKPVFLLKNIPNVDGTPLVNQLTKTYLTDITVKGAWTGPGSLELHPHALAPISNLYIKKIVSVSHFITDLTLPYGKVVADYLA", "soluble on expression in E. coli": "soluble"},
      {"sequence": "MGSDKIHHHHHHMTIETIKRIIEEENVRFIRLQFTDINGTLKNLEITPDVFLESWEDGIMFDGSSIEGFVRIEESDMYLKPVLDTFAVLPWTVDGAKSARVICDVYTPDGKPFEGDPRYRLRRMMEKAEQLGYTPYAGPEMEFFILPINEKGEPVPEFLDHGGYFDLLPLSKVEEIRRDIAIALEKMGITVEATHHEVAPSQHEVDFRYDTFLRTADNAQTVKLVIKTMAIFHGYHATFMPKPFYGVNGSGMHVHMSLFRGDKNAFYDPDDPLGLSKELRYFVGGILKHAKALAAVTNPTINSYKRLVPGYEAPVYISWSVGNRSALIRIPKARGKATRLEYRSPDPSCNIYLAFAAILAAGLDGIINKIEPPAPVEENIYHMTSERREELNIESLPGSLKEAVEELKKDDVIIDALGEHIFEKFVEAAEKDWKEFSTYVTNWELQRYLYL", "soluble on expression in E. coli": "not soluble"},
      {"sequence": "MKNMLPAYIKIHDQIKKDIDEYRWAIGERLPSERDLAEQFAVSRMTLRQAVSLLVEEGVLERRVGSGTFVSSTRVQEKMRGTTSFTEIVKSQGKVPSSQLISYKKTIPNEQEVAKLGIFPTDNIIRMERVRYADQVPLVYEVASIPEKFIKDFKKEEITSHFFQTLQKHGYRIGKSQQTIYARLAKEKIAHYLEVEKGHAILGLTQVSYLEDGTAFEYVKSQYVGERFEFYLENN", "soluble on expression in E. coli": "not soluble"},
      {"sequence": "MAPKSILITGANRGIGLGLLKQFIKNKDVQIIIGTCRDPSNATELNSIKDTRVHILQLDIDCDDSIRKLGAEVEKLVGEDGLTVLINNAGIFVPYDIDGEKSRSTLIRQLETNTISTVLITQELLPLLKRAAAKNRGEGYSINRSAIINISSTAGSITKIDASYNIPLVAYRMSKSALNSFGKSCSVDLAKYHILVTTFCPGWVKTDMGGANGKLEIDDATKTLSDNILILGDAHHGAYLNADLTVIPN", "soluble on expression in E. coli": "soluble"},
      {"sequence": "MSLQFDARNMALLESLVVANVYLAPEKLQEELGISKRTLQYDVEKINKELDNIGLDGIQSVRGQGYYLLEDEKSTIKEILGNREASHKVFSASERRIRILFFLLVTDARVIIDTINECNEVSRNTSLQDIKQLKLALKQFNLELAYDRKNGNMVLGDERSIRQFFIHYCMNNEEIATADQLLDLMKINPMIKNQELFPKLDTIFEILAVTEKKIGIRYTDEVLERIGIMIFFFKERMKRNCYLNEQEEHEVESFEIAQEIYQQLQQSENFKINHAEITYLGKLLLGASRLNDDAAAEGKLDLIVEKIIAEFERLACVNFEDHRNLKKDLLLHLQPAYYRLKFQIEWINPLRTDIKQSYSDVYEITKKSLEPLEDLLGETIPEDEIAYVTILFGGYLSRKNNEGHHHHHH", "soluble on expression in E. coli": "soluble"},
      {"sequence": "MNEQGVIFNSNGKQLVGIEHLPEPIHQGQTNKGVIIVVGGPQTRVGSHRLFVHLARALAKQRIVVFCFDYSGAGDSEGTVSTFTDIQDDIEAAFTPLSSAIVILLSWLDGAYAMLHRPFCFTSMSALNKRR", "soluble on expression in E. coli": "not soluble"},
      {"sequence": "MASRRKRRKVNEESEIPCSPVVIFAHGAGAPSSSDWMIRWKEMLKKTLEAVEVVTFDYPYLADGKKRVAPKAEKLIEFHLNVVKETAAKFPGHPLILVGKSMGSRVSCMVSAVNEDVTVSAVICLGYPLKGAKGAIRDETLLEMGVPVMFVQGSKDPMCPLNKLEAVCNKMKAVTEVHVIDGGDHSFKIGKKHLETKELTQEEVEDVAMKAIAAFVSKSLAQSS", "soluble on expression in E. coli": "soluble"},
      {"sequence": "APTAPSIDMYGSNNLQFSKIELAMETTSGYNDMVKYHELAKIKVKFNQWSGTSGDTYNVYFDGVKVATGAITGSQTTASFEYGQGGLYQMEIEACDATGCSKSAPVEITIADTDGSHLKPLTMNVDPNNKSYNTDPSIVMGTYFVEWGIYGRDYTVDNMPVDNLTHILYGFIPICGPNESVKSVGGNSFNALQTACRGVNDYEVVIHDPWAAYQKSFPQAGHEYSTPIKGNYAMLMALKQRNPDLKIIPSIGGWTLSDPFYDFVDKKNRDTFVASVKKFLKTWKFYDGVDIDWEFPGGGGAAADKGDPVNDGPAYIALMRELRVMLDELEAETGRTYELTSAIGVGYDKIEDVDYADAVQYMDYIFAMTYDFYGGWNNVPGHQTALYCGSFMRPGQCDGGGVDENGEPYKGPAYTADNGIQLLLAQGVPANKLVLGTAMYGRGWEGVTPDTLTDPNDPMTGTATGKLKGSTAQGVWEDGVIDYKGIKSFMLGANNTGINGFEYGYDAQAEAPWVWNRSTGELITFDDHRSVLAKGNYAKSLGLAGLFSWEIDADNGDILNAMHEGMAGGVVTPPNRRSHHHHHH", "soluble on expression in E. coli": "soluble"}
    ]}
  ]
}
